# Source: PMC4666394, “Human HLTF mediates postreplication repair by its HIRAN domain-dependent replication fork remodelling”
# Positions count from the first letter of the chain named.
# T1: HLTF HIRAN domain NN90,91AA (human, UniProt Q14527 56-168, N90A;N91A)
# T1 sequence: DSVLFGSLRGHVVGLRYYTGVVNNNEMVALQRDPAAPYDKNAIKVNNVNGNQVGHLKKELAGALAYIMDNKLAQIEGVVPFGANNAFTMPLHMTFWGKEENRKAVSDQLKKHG
# T2: HLTF HIRAN domain WT (human, UniProt Q14527 56-168)
# T2 sequence: T1 sequence with A35N, A36N
# T3: GST-FLAG-HIRAN (WT) (human, UniProt Q14527 56-168)
# T3 sequence: T1 sequence with A35N, A36N
# B1: ds75-mer O1058/O1118 (dsDNA)
# DNA 1: AGCTACCATGCCTGCCTCAAGAATTCGTAATATGCCTACACTGGAGTACCGGAGCATCGTCGTGACTGGGAAAAC
# DNA 2: GTTTTCCCAGTCACGACGATGCTCCGGTACTCCAGTGTAGGCATATTACGAATTCTTGAGGCAGGCATGGTAGCT
# B2: partial duplex O1054/O1118 (mixed)
# DNA 1: AGCTACCATGCCTGCCTCAAGAATTCGTAA
# DNA 2: B1 DNA 2
# B3: replication fork O1054/O1056/O1058/O1118 (structured_DNA)
# DNA 1: B2 DNA 1
# DNA 2: TTACGAATTCTTGAGGCAGGCATGGTAGCT
# DNA 3: B1 DNA 1
# DNA 4: B1 DNA 2
# B4: replication fork O1054/O1056/O1058/O3063 (structured_DNA)
# DNA 1: B2 DNA 1
# DNA 2: B3 DNA 2
# DNA 3: B1 DNA 1
# DNA 4: B1 DNA 2
# How the values were obtained:
# [1] = biological target: T1, HLTF HIRAN domain NN90,91AA; assay: EMSA; Competition: 20 mM HEPES pH 7.5, 150 mM NaCl, 1 mM DTT, 0.1 ug/mL BSA, 0.2% NP40, 10% glycerol, room temperature 15 min; 6% native PAGE 0.5x Tris-borate without EDTA at 4 C; direct gel shift as in cited earlier work; conditions: protein: recombinant, tags: FLAG or GST-FLAG, label: 5' 32P
# HLTF HIRAN domain WT [2] = biological target: T2, HLTF HIRAN domain WT; assay: as above; conditions: protein: recombinant, tags: FLAG (GST-FLAG cleaved by PreScission) or GST-FLAG, label: 5' 32P
# HLTF HIRAN domain WT [3] = biological target: T2, HLTF HIRAN domain WT; assay: EMSA; high affinity; Competition: 20 mM HEPES pH 7.5, 150 mM NaCl, 1 mM DTT, 0.1 ug/mL BSA, 0.2% NP40, 10% glycerol, room temperature 15 min; 6% native PAGE 0.5x Tris-borate without EDTA at 4 C; direct gel shift as in cited earlier work; conditions: protein: recombinant; tags: FLAG (GST-FLAG cleaved by PreScission) or GST-FLAG; label: 5' 32P; fork 1:4 2:3 3:4; two 30 bp daughter arms, 45 bp parental duplex, no ss region
# GST-FLAG-HIRAN (WT) = biological target: T3, GST-FLAG-HIRAN (WT); assay: competition; 0-1 uM competitor against Cy5 fork; competes better than ssDNA; Competition: 20 mM HEPES pH 7.5, 150 mM NaCl, 1 mM DTT, 0.1 ug/mL BSA, 0.2% NP40, 10% glycerol, room temperature 15 min; 6% native PAGE 0.5x Tris-borate without EDTA at 4 C; direct gel shift as in cited earlier work; conditions: protein: recombinant; tags: GST-FLAG; label: 5' fluorescein on strand 4 (O3063); fork 1:4 2:3 3:4; two 30 bp daughter arms, 45 bp parental duplex, no ss region
# [4] = 30 bp duplex, 5' overhang 45 nt on strand 2
binder,measurement,setting,value
B1,binding result,[1]; blunt,no binding
same,binding result,HLTF HIRAN domain WT [2]; blunt,no binding
B2,binding result,[1]; [4],no binding
same,binding result,HLTF HIRAN domain WT [2]; [4],binds
B3,binding result,"[1]; fork 1:4 2:3 3:4, two 30 bp daughter arms, 45 bp parental duplex, no ss region",no binding
same,binding result,HLTF HIRAN domain WT [3],binds
B4,binding result,GST-FLAG-HIRAN (WT),binds
